Test [1] addresses T1, hTregL1-his tryptic peptide 499-531 (human).
T1 sequence (peptide): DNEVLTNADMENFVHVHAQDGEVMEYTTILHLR
The test is described as follows: affinity-MS: tryptic antigen peptides eluted from antibody-CNBr column, LC-MS.

Test [2] concerns the target T2, hTregL1-his tryptic peptide 498-531 (human).
T2 sequence (peptide): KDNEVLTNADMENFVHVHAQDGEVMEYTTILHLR
The description is as above.

The target in test [3] is T3, hTregL1-his tryptic peptide 499-529 (human).
T3 sequence (peptide): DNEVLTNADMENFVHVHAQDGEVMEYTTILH
The description is as above.

Test [4] has as its target T4, hTregL1-his chymotryptic peptide 728-744 (human).
T4 sequence (peptide): TCEMSNTLGTERAHSQL
As to the kind of experiment: affinity-MS: chymotryptic antigen peptides eluted from antibody-CNBr column, LC-MS.

Test [5] deals with T5, hTregL1-his chymotryptic peptide 529-535 (human).
T5 sequence (peptide): HLRQVTF
Described as above.

Test [6] has as its target T6, hTregL1-his chymotryptic peptide 327-344 (human).
T6 sequence (peptide): DLDHNEISGTIEDTSGAF
The test is described as above.

Test [7] addresses T7, hTregL1-his chymotryptic peptide 430-446 (human).
T7 sequence (peptide): VTATCAHPESLKGQSIF
The description is as above.

Test [8] concerns the target T8, hTregL1-his chymotryptic peptide 536-553 (human).
T8 sequence (peptide): GHEGRYQCVITNHFGSTY
The test is described as above.

For test [9], the target named is T9, hTregL1-his chymotryptic peptide 585-598 (human).
T9 sequence (peptide): ECAATGHPNPQIAW
Described as above.

In test [10] the target is T10, hTregL1-his chymotryptic peptide 427-440 (human).
T10 sequence (peptide): QAFVTATCAHPESL
The description is as above.

For test [11], the target named is T11, hTregL1-his chymotryptic peptide 402-416 (human).
T11 sequence (peptide): HISSDSFLCDCQLKW
The description is as above.

Test [12] concerns the target T12, hTregL1-his chymotryptic peptide 472-492 (human).
T12 sequence (peptide): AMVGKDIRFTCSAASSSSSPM
Described as above.

Test [13] concerns the target T13, hTregL1-his chymotryptic peptide 113-134 (human).
T13 sequence (peptide, N-glycan at 116(N)): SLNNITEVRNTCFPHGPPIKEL
The test is described as above.

The target of test [14] is T14, hTregL1-his chymotryptic peptide 447-471 (human).
T14 sequence (peptide): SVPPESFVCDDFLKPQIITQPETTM
Described as above.

Test [15] addresses T15, hTregL1-his chymotryptic peptide 637-653 (human).
T15 sequence (peptide, N-glycan at 650(N)): SCTAQNSAGSISANATL
Described as above.

The target in test [16] is T16, hTregL1-his chymotryptic peptide 430-440 (human).
T16 sequence (peptide): VTATCAHPESL
The test is described as above.

In test [17] the target is T17, hTregL1-his chymotryptic peptide 624-636 (human).
T17 sequence (peptide): FITDVKIDDAGVY
The test is described as above.

The target in test [18] is T18, hTregL1-his chymotryptic peptide 270-280 (human).
T18 sequence (peptide): SFCQKLHELVL
The description is as above.

Several values for one entry are separate records, joined by “and”; a condition that tells them apart may be missing. Equal entries are not always repeated.

B1: GTC310-01-hlgG1 (antibody, human IgG1, kappa, V domains shown)
VH: EVQLLESGGGLVQPGGSLRLSCAASGFTFSNYAMSWVRQAPGKGLEWVSVISHGGGSTYYADSVKGRFTISRDNSKNTLYLQMNSLRAEDTAVYYCARVISNCHLGVCYYSNGMDVWGQGTLVTVSS
VL: QLVLTQPPSVSAAPGQRVSISCSGSSSNIGDNYVSWYQQVPGSAPKLLIYDNNKRPSGIPDRFSASKSGTSATLGITGLQTGDEADYYCATWDGSLSAGRVFGGGTKLTVLR
B1: the MS Area in [1] is 1.9e+07 (2×) and 6.9e+06; in test [2] it was 7.66e+06 and 4.64e+06 and 4.1e+06; in test [3] it was 1.21e+06 and 726000 and 442000; in test [4] it was 335000 and 736000; in test [5] it was 378000 and 312000; in test [6], 283000 and 298000. The MS Area is 1e+06 and 705000 in [7]; 497000 and 295000 in test [8]; 766000 and 374000 in test [9]; 1.05e+06 and 554000 in [10]; 1.67e+07 and 7.24e+06 in [11]; 407000 and 325000 in test [12]. Further, the MS Area is 556000 and 544000 in test [13]; 1.62e+06 and 1.32e+06 in [14]; 334000 and 207000 in test [15]; 1.59e+07 and 1.18e+07 in test [16]; 473000 and 399000 in [17]; 459000 and 335000 in test [18].

(Values after EP4678655A1.)
